Assay results as given in patent publication US20090280138A1 (OXFORD BIOMEDICA UK, published 2009).

Biological target: T1, MHC class I molecule A*0201 (biotin (bound to streptavidin-coated plate))
T1 construct: iTopia monomer stripped of placeholder peptide and b2M, then reconstituted with test peptide and fresh b2M; also called A2; HLA-A2
Assay: iTopia peptide binding assay
Outline: (§1)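 In this kit-based ELISA, nonamer peptides are scored in duplicate for binding to plate-bound MHC under standardized optimal conditions, alongside allele-specific positive controls. Peptides classed as binders proceed to dissociation and affinity experiments.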

Row | Binder | binding, % of positive control peptide
1 | NIRDACRDH [5T4 9-mer peptide 194 (NIRDACRDH)] | 1 % of positive control
2 | KGIKKWMHN [5T4 9-mer peptide 190 (KGIKKWMHN)] | 14 % of positive control
3 | YRYEINADP [5T4 9-mer peptide 201 (YRYEINADP)] | 0 % of positive control
4 | ACRDHMEGY [5T4 9-mer peptide 196 (ACRDHMEGY)] | 8 % of positive control
5 | PRLTNLSSN [5T4 9-mer peptide 205 (PRLTNLSSN)] | 8 % of positive control
6 | IFLLVLYLN [5T4 9-mer peptide 185 (IFLLVLYLN)] | 8 % of positive control
7 | EGYHYRYEI [5T4 9-mer peptide 199 (EGYHYRYEI)] | 9 % of positive control
8 | RDHMEGYHY [5T4 9-mer peptide 197 (RDHMEGYHY)] | 6 % of positive control
9 | INADPRLTN [5T4 9-mer peptide 203 (INADPRLTN)] | 3 % of positive control
10 | YHYRYEINA [5T4 9-mer peptide 200 (YHYRYEINA)] | 7 % of positive control

Biological target: T2, MHC class I molecule A*0101 (biotin (bound to streptavidin-coated plate))
T2 construct: iTopia monomer stripped of placeholder peptide and b2M, then reconstituted with test peptide and fresh b2M; also called A1; HLA-A1
Assay: iTopia peptide binding assay
Outline: as §1

Row | Binder | binding, % of positive control peptide
11 | NIRDACRDH [5T4 9-mer peptide 194 (NIRDACRDH)] | 0 % of positive control
12 | KGIKKWMHN [5T4 9-mer peptide 190 (KGIKKWMHN)] | 3 % of positive control
13 | YRYEINADP [5T4 9-mer peptide 201 (YRYEINADP)] | 0 % of positive control
14 | ACRDHMEGY [5T4 9-mer peptide 196 (ACRDHMEGY)] | 3 % of positive control
15 | PRLTNLSSN [5T4 9-mer peptide 205 (PRLTNLSSN)] | 2 % of positive control
16 | IFLLVLYLN [5T4 9-mer peptide 185 (IFLLVLYLN)] | 0 % of positive control
17 | EGYHYRYEI [5T4 9-mer peptide 199 (EGYHYRYEI)] | 0 % of positive control
18 | RDHMEGYHY [5T4 9-mer peptide 197 (RDHMEGYHY)] | 11 % of positive control
19 | INADPRLTN [5T4 9-mer peptide 203 (INADPRLTN)] | 0 % of positive control
20 | YHYRYEINA [5T4 9-mer peptide 200 (YHYRYEINA)] | 0 % of positive control

Biological target: T3, MHC class I molecule A*0301 (biotin (bound to streptavidin-coated plate))
T3 construct: iTopia monomer stripped of placeholder peptide and b2M, then reconstituted with test peptide and fresh b2M; also called A3; HLA-A3
Assay: iTopia peptide binding assay
Outline: as §1

Row | Binder | binding, % of positive control peptide
21 | NIRDACRDH [5T4 9-mer peptide 194 (NIRDACRDH)] | 0 % of positive control
22 | KGIKKWMHN [5T4 9-mer peptide 190 (KGIKKWMHN)] | 3 % of positive control
23 | YRYEINADP [5T4 9-mer peptide 201 (YRYEINADP)] | 1 % of positive control
24 | ACRDHMEGY [5T4 9-mer peptide 196 (ACRDHMEGY)] | 4 % of positive control
25 | PRLTNLSSN [5T4 9-mer peptide 205 (PRLTNLSSN)] | 2 % of positive control
26 | IFLLVLYLN [5T4 9-mer peptide 185 (IFLLVLYLN)] | 0 % of positive control
27 | EGYHYRYEI [5T4 9-mer peptide 199 (EGYHYRYEI)] | 0 % of positive control
28 | RDHMEGYHY [5T4 9-mer peptide 197 (RDHMEGYHY)] | 3 % of positive control
29 | INADPRLTN [5T4 9-mer peptide 203 (INADPRLTN)] | 1 % of positive control
30 | YHYRYEINA [5T4 9-mer peptide 200 (YHYRYEINA)] | 1 % of positive control

Biological target: T4, MHC class I molecule B*0702 (biotin (bound to streptavidin-coated plate))
T4 construct: iTopia monomer stripped of placeholder peptide and b2M, then reconstituted with test peptide and fresh b2M; also called B7; HLA-B7
Assay: iTopia peptide binding assay
Outline: as §1

Row | Binder | binding, % of positive control peptide
31 | NIRDACRDH [5T4 9-mer peptide 194 (NIRDACRDH)] | 6 % of positive control
32 | KGIKKWMHN [5T4 9-mer peptide 190 (KGIKKWMHN)] | 6 % of positive control
33 | YRYEINADP [5T4 9-mer peptide 201 (YRYEINADP)] | 3 % of positive control
34 | ACRDHMEGY [5T4 9-mer peptide 196 (ACRDHMEGY)] | 7 % of positive control
35 | PRLTNLSSN [5T4 9-mer peptide 205 (PRLTNLSSN)] | 11 % of positive control
36 | IFLLVLYLN [5T4 9-mer peptide 185 (IFLLVLYLN)] | 2 % of positive control
37 | EGYHYRYEI [5T4 9-mer peptide 199 (EGYHYRYEI)] | 4 % of positive control
38 | RDHMEGYHY [5T4 9-mer peptide 197 (RDHMEGYHY)] | 5 % of positive control
39 | INADPRLTN [5T4 9-mer peptide 203 (INADPRLTN)] | 4 % of positive control
40 | YHYRYEINA [5T4 9-mer peptide 200 (YHYRYEINA)] | 5 % of positive control

Biological target: T5, MHC class I molecule A*0201 (biotin (bound via biotin to streptavidin-coated plates))
T5 construct: also called A2; HLA-A2
Assay: iTopia affinity assay (ED50), peptide titration on plate-bound MHC
Description: (§2) The 9 mers were tested for Peptide Binding, Off Rate and Affinity using iTopia Epitope Discovery System in accordance with the manufacturer's instructions. Briefly, 96 well microtitre plates coated with MHC molecules representing different MHC alleles are used to identify candidate peptides. […] Determinations are performed in duplicate using an ELISA plate reader and included allele specific positive controls.
Dose-response curves of peptide binding to MHC were prepared by peptide titration to determine the ED50 measurement for each peptide. Values for the concentrations tested (in duplicate) were obtained as a percentage of the highest (9000×) concentration of the positive control peptide. A dose-response curve was generated using GraphPad Prism® curve fitting software, which automatically calculated the ED50 (in Molarity) for each peptide.

Row | Binder | EC50
41 | ILNHIVPPE [5T4 9 mer peptide 90 (ILNHIVPPE)] | 6 µM
42 | SSAPFLASA [5T4 9 mer peptide 22 (SSAPFLASA)] | 0.3 µM
43 | GMVVAALLA [5T4 9 mer peptide 99 (GMVVAALLA)] | 0.6 µM
44 | PLADLSPFA [5T4 9 mer peptide 77 (PLADLSPFA)] | 2 µM
45 | LDLSNNSLV [5T4 9 mer peptide 120 (LDLSNNSLV)] | 20 µM
46 | AFSGSNASV [5T4 9 mer peptide 81 (AFSGSNASV)] | 7 µM
47 | PALCECSEA [5T4 9 mer peptide 32 (PALCECSEA)] | 4 µM
48 | FLTGNQLAV [5T4 9 mer peptide 49 (FLTGNQLAV)] | 1 µM

Biological target: T6, MHC class I allele A*0301 monomer (human, biotinylated, bound to streptavidin-coated plate)
T6 construct: also called A3; HLA-A3
Assay: iTopia, multiparametric iScore
Outline: (§3)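 The iScore combines the binding, off-rate and affinity results into one overall binding-quality value for each 9-mer. These measurements were made by ELISA in duplicate on MHC-coated plates, with allele-specific positive controls.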

Row | Binder | iScore
49 | ILPPSLQTS [5T4 9-mer peptide 174] | 0
50 | HMADMVTWL [5T4 9-mer peptide 151] | 0
51 | SLQTSYVFL [5T4 9-mer peptide 176] | 0
52 | LIGAIFLLV [5T4 9-mer peptide 183] | 0.07
53 | VFLGIVLAL (also called VFLGIVLAL) [5T4 9-mer peptide 179] | 0
54 | LALIGAIFL [5T4 9-mer peptide 182] | 0

Biological target: T7, MHC class I allele B*0702 monomer (human, biotinylated, bound to streptavidin-coated plate)
T7 construct: also called B7; HLA-B7
Assay: iTopia, multiparametric iScore
Outline: as §3

Row | Binder | iScore
55 | ILPPSLQTS [5T4 9-mer peptide 174] | 0
56 | HMADMVTWL [5T4 9-mer peptide 151] | 0
57 | SLQTSYVFL [5T4 9-mer peptide 176] | 0
58 | LIGAIFLLV [5T4 9-mer peptide 183] | 0
59 | VFLGIVLAL (also called VFLGIVLAL) [5T4 9-mer peptide 179] | 0
60 | LALIGAIFL [5T4 9-mer peptide 182] | 0.067

Biological target: T8, MHC class I allele A*0201 monomer (human, biotinylated, bound to streptavidin-coated plate)
T8 construct: also called A2; HLA-A2
Assay: iTopia, multiparametric iScore
Outline: as §3

Row | Binder | iScore
61 | ILPPSLQTS [5T4 9-mer peptide 174] | 0.523
62 | HMADMVTWL [5T4 9-mer peptide 151] | 0.821
63 | SLQTSYVFL [5T4 9-mer peptide 176] | 0.561
64 | VFLGIVLAL (also called VFLGIVLAL) [5T4 9-mer peptide 179] | 0.606
65 | LALIGAIFL [5T4 9-mer peptide 182] | 0.425

Biological target: T9, MHC class I allele A*0101 monomer (human, biotinylated, bound to streptavidin-coated plate)
T9 construct: placeholder peptide and b2M removed, then reconstituted with test peptide and fresh b2M; also called A1; HLA-A1
Assay: iTopia, multiparametric iScore
Outline: as §3

Row | Binder | iScore
66 | ILPPSLQTS [5T4 9-mer peptide 174] | 0
67 | HMADMVTWL [5T4 9-mer peptide 151] | 0
68 | SLQTSYVFL [5T4 9-mer peptide 176] | 0
69 | LIGAIFLLV [5T4 9-mer peptide 183] | 0
70 | VFLGIVLAL (also called VFLGIVLAL) [5T4 9-mer peptide 179] | 0
71 | LALIGAIFL [5T4 9-mer peptide 182] | 0

Biological target: T7, MHC class I allele B*0702 monomer
Assay: iTopia, multiparametric iScore
Remark: another data set of the same source
Description: as §2
(§4) Finally, multiparametric analysis is performed on the results from these assays and an iScore is generated. The iScore represents a measure of the overall quality of peptide-MHC binding, enabling candidate peptides to be ranked in order of binding quality and allowing rational prioritisation of peptides for functional cellular follow-up studies.

Row | Binder | iScore
72 | GAFARRPPL [5T4 9-mer peptide 55] | 0.359
73 | SPTSSASSF [5T4 9-mer peptide 17] | 0.335
74 | LPAYVRNLF [5T4 9-mer peptide 45] | 0.389
75 | RLRLARLAL (also called RLRLARLAL) [5T4 9-mer peptide 8] | 1
76 | LPSLRQLDL [5T4 9-mer peptide 71] | 0.454
77 | LPSLRHLDL [5T4 9-mer peptide 117] | 0.445

Biological target: T8, MHC class I allele A*0201 monomer
Assay: iTopia, multiparametric iScore
Remark: another data set of the same source
Description: as §2, §4

Row | Binder | iScore
78 | ILPPSLQTS [5T4 9-mer peptide 174] | 0.523
79 | GMVVAALLA [5T4 9-mer peptide 99] | 0.384
80 | ILNHIVPPE [5T4 9-mer peptide 90] | 0.426
81 | HMADMVTWL [5T4 9-mer peptide 151] | 0.821
82 | PLADLSPFA [5T4 9-mer peptide 77] | 0.556
83 | RLDEVRAGA [5T4 9-mer peptide 65] | 0.422
84 | SLQTSYVFL [5T4 9-mer peptide 176] | 0.561
85 | LIGAIFLLV [5T4 9-mer peptide 183] | 1.9
86 | VFLGIVLAL (also called VFLGIVLAL) [5T4 9-mer peptide 179] | 0.606
87 | SSAPFLASA [5T4 9-mer peptide 22] | 0.389
88 | LAELAALNL [5T4 9-mer peptide 59] | 0.72
89 | FLTGNQLAV [5T4 9-mer peptide 49] | 0.791
90 | LALIGAIFL [5T4 9-mer peptide 182] | 0.425
